Laboratory results: US20240164355

Biological target: Ubiquitin-AMC (Ub-AMC) (UniProt P0CG48)

CidB* (CidB-C1025A catalytic mutant) was tested. Which Ub-AMC hydrolysis did it give?
Its Ub-AMC hydrolysis is “The CidB-C1025A catalytic mutant was inactive against Ub-AMC (data not shown)”.
